# Measurements published in patent US20090324700A1, “METHODS AND COMPOSITIONS FOR THE INHIBITION OF CATHEPSINS” (priority 2003, published 2009).
# Where “and” joins values, the source holds several entries; their conditions need not be identical. Identical values can stand only once.
# B1: Spi2A: murine Spi2A polypeptide, SEQ ID NO:2; purified as C-terminal 3×FLAG protein or expressed from MIGR1 retrovirus in cells and bone-marrow chimeras (protein, listed as Mus musculus)
# chain: MAGVSPAVFGCPDVTLGRNTAVREVQENVTSVDSLTLVSSNTDFAFSLYRKLVLKNPDENVVFSPFSICTALALLSLGAKSNTLKEILEGLKFNLTETPEPDIHQGFRYLLDLLSQPGNQVQISTGSALFIEKHLQILAEFKEKARALYQAEAFTADFQQPLKATKLINDYVSNHTQGKIKELISGLKESTLMVLVNYIYFKGKWKNPFDPNDTFKSEFYLDEKRSVIVSMMKTGYLTTPYFRDEELSCTVVELKYTGNASAMFILPDQGRMQQVEASLQPETLRKWKNSLKPRMIHELRLPKFSISTDYSLEHILPELGIREVFSTHADLSAITGTKDLRVSQVVHKAVLDVAEKGTEAAAATGMAGVGCCAVFDFLEIFFNRPFLMIISDTKAHIALFMAKVTNPERSTNFPNGEGASSQRLESKRLCFGDPLCLIGQ
# modifications: C-terminal 3xFLAG tag
# notes: purified as C-terminal 3×FLAG protein or expressed from MIGR1 retrovirus in cells and bone-marrow chimeras
# Assays:
# [1] = target: T1, caspase 8 (Homo sapiens, UniProt Q14790); assay: Protease specificity of Spi2A: caspase 8; format: biochemical; conditions: FIG. 6B
# T1 construct: purchased Calbiochem or Athens Research and Technology
# Procedure: Protease specificity of Spi2A. RelA^−/− MEFs were transduced with retrovirus encoding Spi2A with a C-terminal 3×FLAG epitope tag and Spi2A-3×FLAG purified using a method described previously (Cooley et al., 1998). Briefly, cells (3×10^9) were lysed and Spi2A-3×FLAG (75 μg) purified by batch Q-Fast Flow ion-exchange chromatography (Pharmacia Biotech) after elution at 160-220 mM NaCl followed by anti-FLAG antibody columns, performed according to manufacturer's instructions (Sigma-Aldrich). Spi2A-3×FLAG was dialysed into PBS and stored as aliquots at −80° C. until needed.
# Proteases were purchases from the manufacturers (Calbiochem or Athens Research and Technology) except granzymes A and B which were purified as described (Hanna et al., 1993) and cathespin V and K, which were purified as described (Bromme et al., 1999; Linnevers et al., 1997). Proteases (20 nM) were incubated in the appropriate assay buffer with Spi2A at 200 nM (at least 10-fold excess of inhibitor to maintain pseudo-first order conditions) for 1 h at 37° C. Control samples included only the enzyme, without the inhibitor. At the end of 1 h protease activity was assayed. […] Substrate hydrolysis was measured in a fluorescence microtiter plate reader (Spectramax Gemini XS, Molecular Devices). Percentage inhibition was calculated from the residual enzyme activity compared to no Spi2A controls. […]
# [2] = system: caspase-8, 9 and 3, and Bid; assay: Death effector assays: caspase and Bid activation (western blots, enzyme assays), RelA^−/− MEFs; format: cell-based, mouse; conditions: TNF-α 0.2 ng/ml, CHX 0.1 μg/ml; FIG. 5A, 5B
# Procedure: (§1) Death effector assays. Death effector pathways were induced in […] MEFs by treatment TNF-α (0.2 ng/ml) and CHX (0.1 μg/ml). Assays for executioner proteases (caspases and cathepsin B) were performed on crude cytoplasmic extracts (Stegh et al., 2000). Briefly, MEFs (10^6) were lysed in 10 mM Tris-Cl, pH 7.5, 100 mM NaCl, 1 mM EDTA, 0.01% Triton X-100 (50 μl) for 30 min on ice then centrifuged at 15,000 g for 30 min at 4° C. and the supernatant recovered. Protein concentration was determined by Lowry assay (DC-protein assay kit, Biorad). […]
# Colorimetric assays for capases were performed in reaction buffer (50 mM HEPES, pH 7.4, 100 mM NaCl, 10 mM DTT, 1 mM EDTA, 10% glycerol, 0.1% CHAPS) at 37° C. on crude cytoplasmic extracts using p-Nitoaniline (pNA)-labeled substrates (Calbiochem) specific for caspases 3 and 7 (Ac-DEVD-pNA), caspase 8 (Ac-IETD-pNA), caspase 9 (Ac-LEHD-pNA), each at 0.2 mM. Specific activity was determined by subtracting the apparent activity detected after 1 h pre-incubation of extract with the pan-caspase inhibitor Z-VAD.fmk at 50 μM (ICN Biomedicals Inc), then normalizing for the amount of protein. […] Specific activity was determined by subtracting the apparent activity detected after 30 min pre-incubation of extract at 37° C. with the cathespin B inhibitor CA-074 Me at 30 μM (Peptide Institute) then normalizing for the amount of protein.
# [3] = system: RelA^−/− MEFs; assay: ROS production (dihydroethidium), RelA^−/− MEFs; format: cell-based, mouse; conditions: TNF-α 0.2 ng/ml, CHX 0.1 μg/ml; FIG. 5D
# Procedure: as §1, with “Biorad). Western immunoblots were performed on crude cytosolic extracts (50 μg per lane) using standard protocols and probed with the following antibodies: goat anti-mouse Bid antiserum (1 μg/ml; R&D systems), rabbit anti-human caspase 9 antiserum (2 μg/ml; Cell Signaling Technology), rabbit anti-human caspase 3 antiserum (2 μg/ml; Cell Signaling Technology), mouse anti-human caspase 8 monoclonal antibody clone 12F5 (1 μg/ml; Axxora).” for “Biorad).”
# Mitochondrial membrane potential and ROS production were measured using the fluorescent dyes JC-1 (3 μg/ml) and dihydroethidium (HE) (5 μM)(Molecular Probes) respectively, and flow cytometry according to the manufacturer's instructions.
# [4] = system: NIH3T3 cells; assay: Survival of NIH3T3 cells incubated with Naphazarin (ROS); format: cell-based; conditions: 16 hours; three clones vs GFP controls; FIG. 12B
# Procedure: FIGS. 12A-B: Spi2A inhibits the lysosomal pathway of death in the absence of caspase activity. FIG. 12A: Cathepsin B activity in crude cytoplasmic extracts from cloned GFP or Spi2A-A NIH3T3 cells before (time=00 h) or after (time=8 h) treatment with TNF-α+Z-VAD.fmk (50 μM). FIG. 12B: Spi2A protects NIH3T3 cells from death due to reactive oxygen species. NIH3T3 fibroblasts from independent clones harboring control retrovirus (GFP clones #, 18, 12 and 2) or one expressing Spi2A (Spi2A clones# 6, 4 and 2) were incubated with Naphazarin—a known initiator of Reactive Oxygen Species (ROS). After 16 hours, the percentage of live cells was determined by flow cytometry as described in Liu et al. (2003).
# Spi2A protects NIH3T3 cells from death due to reactive oxygen species. NIH3T3 fibroblasts from independent clones harboring control retrovirus (GFP clones #, 18, 12 and 2) or one expressing Spi2A (Spi2A clones# 6, 4 and 2) were incubated with Naphazarin—a known initiator of Reactive Oxygen Species (ROS). After 16 hours, the percentage of live cells was determined by flow cytometry as described in Liu et al., 2003.
# [5] = system: anti-LCMV memory CD8 cells; conditions: mouse, in vivo
# T1 sequence (Q14790 217-374 limits assumed, species assumed): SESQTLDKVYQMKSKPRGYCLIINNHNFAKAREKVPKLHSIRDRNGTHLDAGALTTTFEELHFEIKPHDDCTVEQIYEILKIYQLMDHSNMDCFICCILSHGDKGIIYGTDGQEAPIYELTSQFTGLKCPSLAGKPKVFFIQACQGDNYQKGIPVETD
# T1 sequence (Q14790 385-479 limits assumed, species assumed): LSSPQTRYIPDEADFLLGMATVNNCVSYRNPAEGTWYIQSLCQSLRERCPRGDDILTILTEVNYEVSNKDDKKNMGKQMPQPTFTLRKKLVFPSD
molecule,measurement,setting,value
B1,Inhibition of protease by Spi2A (percentage inhibition),[1],did not extend to any of the caspases tested
same,Activation of apical and executioner caspases and Bid,[2],suppressed
same,production of reactive oxygen species (ROS),[3],suppressed
same,Survival (percentage of live cells) with Naphazarin,[4],significantly increased survival
same,Number of anti-LCMV CD8 cells per spleen GFP^−,[5],5.07 ± 0.68 (n = 3) ×10^−5 and 2.79 ± 0.12 (n = 6) ×10^−5
same,Percentage and absolute number of anti-LCMV memory CD8 cells (IFN-γ^+ CD8^+) in the spleen,[5],increased
